In article PMC6954417:

Biological target: DSS1 (human)
Test: MST; labelled DSS1 50 nM constant, RAD52 1 nM to 36 uM, 30 mM Tris-acetate pH 7.5, 1 mM DTT, 25°C, quadratic binding equation

Kd: 14 nM
B1: RAD52 (natural protein)
chain: MSGTEEAILGGRDSHPAAGGGSVLCFGQCQYTAEEYQAIQKALRQRLGPEYISSRMAGGGQKVCYIEGHRVINLANEMFGYNGWAHSITQQNVDFVDLNNGKFYVGVCAFVRVQLKDGSYHEDVGYGVSEGLKSKALSLEKARKEAVTDGLKRALRSFGNALGNCILDKDYLRSLNKLPRQLPLEVDLTKAKRQDLEPSVEEARYNSCRPNMALGHPQLQQVTSPSRPSHAVIPADQDCSSRSLSSSAVESEATHQRKLRQKQLQQQFRERMEKQQVRVSTPSAEKSEAAPPAPPVTHSTPVTVSEPLLEKDFLAGVTQELIKTLEDNSEKWAVTPDAGDGVVKPSSRADPAQTSDTLALNNQMVTQNRTPHSVCHQKPQAKSGSWDLQTYSADQRTTGNWESHRKSQDMKKRKYDPS
